Experimental data from US10098967B2, “Self-assembly of therapeutic agent-peptide nanostructures” (Ohio State Innovation Foundation, priority 2012, dated 2018).
Counter-ions that a name gives are not always drawn. Peptide text beside a SMILES is read from it. * marks the point of attachment. Succinyl(20-O-(20S)-CPT) = CC[C@@]1(OC(=O)CCC(=O)*)C(=O)OCc2c1cc1n(c2=O)Cc2cc3ccccc3nc2-1; Fmoc = O=C(OCC1c2ccccc2-c2ccccc21)*

Legend:
[1] = Solubility in PBS and water; type: physicochemical; conditions: for solubility in water: pure water (H2O)
Method: Three CPT-tetrapeptide (KFKK (SEQ ID NO:6)) conjugates were prepared that have alternating hydrophobic and hydrophilic sequence similar to the dipeptide derivatives with one additional lysine bearing a charged free amine. Compound E, F, and G were soluble in both H2O and PBS but as hydrophobicity decreased by changing the N-termini from -Fmoc to —NH2, solubility in both solutions increased.

[2] = Hydrolytic (lactone) stability in PBS by HPLC; type: physicochemical; conditions: for lactone form present after 7 days: stored at 10 mM
Method: The hydrolytic stability of C and D was measured by HPLC in PBS at 37° C. over a week as a function of concentration. […] The stability of the lactone depended strongly on the concentration (FIG. 11(A)). For example, the amount of lactone remaining after 7 days decreased from 91 to 30% for C upon changing the concentration from 10 to 0.2 mM). This progression is consistent with the non-covalent nature of the nanotube structures, which depend on concentration. However, even at 0.2 mM in PBS, 80% of the lactone remained after 24 h, in contrast to CPT, of which 17% of its structure was in the lactone form after 24 h under these conditions.

[3] = Lactone stability in human serum (HS) by HPLC
Method: FIG. 11 (A) is a graph showing lactone stability of CPT-dipeptides Ac-KK(CPT)-NH2 (C), and NH2—KK(CPT)-NH2 (D) in human serum (HS) at 37° C. (pH 7.4) at 1 and 10 mM, as monitored by HPLC. […] Samples were prepared at 10 mM in PBS and subsequently diluted to 1 mM in HS after 24 h.

[4] = test system: mesothelioma tumor xenografts; assay: Mesothelioma (MSTO) tumor xenograft model in mice; type: in vivo; conditions: for Deaths from Tumor Burden: MSTO model, mice, weekly
Method: (§1) NH2—KK(CPT)-NH2 (D) was evaluated for efficacy in treating Lewis Lung Carcinoma (LLC) and mesothelioma tumor xenografts in mice. Animals were first injected with tumor cells either into the flank (LLC model; FIG. 12) or peritoneum (mesothelioma model; Table 2)), and allowed to develop small tumors. The animals were subsequently administered weekly either intravenous or intraperitoneal drugs or saline (negative control), and monitored for tumor burden and body weight over several weeks. […] But these initial studies were extremely limited in scope, only testing one of 15-20 structures that have been created. This lower efficacy is most likely due to reduced mobility of the 1D nanotubes within tissue, a property that can be beneficially exploited to increase the retention of drug within tumors by allowing the assembly process to respond structurally in the environment of the tumor cells.

[5] = test system: HT-29 cells; assay: Flow cytometry of cellular uptake as a function of time; type: cell-based, human; conditions: as a function of incubation time
Method: To quantify the cellular uptake as a function of time, flow cytometry was conducted by monitoring the CPT dipetides at a wavelength of 420-470 nm after 335 nm excitation. […] An analogous flow cytometry study was performed with A549 cells, and similar results and trends were observed.

[6] = test system: Lewis Lung Carcinoma (LLC); assay: Lewis Lung Carcinoma (LLC) flank tumor model in mice; type: in vivo; conditions: tumor cells into the flank, weekly intravenous or intraperitoneal
Method: as §1

[7] = test system: HT-29 cells; assay: In vitro cell assay, HT-29 viability by MTS colorimetric assay; type: cell-based, human; conditions: HT-29, 4 days growth after exposure, conjugates prepared at 10 mM in PBS, aged 3 days
Method: The conjugates discussed in Examples 1 and 2 were tested for efficacy against killing human colorectal cancer cells in an in vitro cell assay. HT-29 cells were plated into 96-well tissue culture plates, at a density of 5,000 cells/well, and allowed to grow overnight. The conjugates were previously prepared at 10 mM in sterile PBS and allowed to age 3 days, while all other Camptothecin drugs were prepared fresh for each experiment/replicate. Irinotecan HCl was dissolved in pH-neutral, sterile-filtered water, and S-Camptothecin and 10-hydroxycamptothecin were dissolved in DMSO due to solubility issues. Further dilutions of all drugs, both Camptothecin-peptides and free Camptothecin derivatives, were performed in cell culture medium. The cells were then exposed to serial dilutions containing the drugs or cell culture medium alone for the control. A peptide derivative was prepared without Camptothecin to serve as a control to test for toxicity of the peptides themselves, and was also tested in this assay. The cells were then allowed to grow for a further 4 days before being assessed for viability using an MTS colorimetric assay.

CC[C@@]1(OC(=O)CCC(=O)NCCCC[C@H](NC(=O)[C@H](CCCCNC(C)=O)NC(=O)OCC2c3ccccc3-c3ccccc32)C(N)=O)C(=O)OCc2c1cc1n(c2=O)Cc2cc3ccccc3nc2-1 [A, Fmoc-K(Ac)K(CPT)-NH2]
solubility in water [1]: poor solubility

CC[C@@]1(OC(=O)CCC(=O)NCCCC[C@H](NC(=O)[C@H](CCCCN)NC(C)=O)C(N)=O)C(=O)OCc2c1cc1n(c2=O)Cc2cc3ccccc3nc2-1 [C, Ac-KK(CPT)-NH2]
lactone remaining after 24 h ([2]; 37° C., 0.2 mM): 80% | lactone remaining after 7 days ([2]; 37° C., 0.2 mM): 30% | lactone form present after 7 days ([2]; 37° C.): 91% | lactone stability after dilution to 1 mM [3]: significantly greater stability than D

CC[C@@]1(O)C(=O)OCc2c1cc1n(c2=O)Cc2cc3ccccc3nc2-1 [CPT, Camptothecin, reference compound]
time to hydrolysis to the inactive carboxylate form [2]: within hours | lactone remaining after 24 h ([2]; 37° C., 0.2 mM): 17% | Deaths from Tumor Burden ([4]; 5 mg/kg): 0/5

CC[C@@]1(OC(=O)CCC(=O)NCCCC[C@H](NC(=O)[C@H](CCCCN)NC(=O)OCC2c3ccccc3-c3ccccc32)C(N)=O)C(=O)OCc2c1cc1n(c2=O)Cc2cc3ccccc3nc2-1 [Compound B, Fmoc-KK(CPT)-NH2]
solubility in PBS [1]: poor solubility

CC[C@@]1(OC(=O)CCC(=O)NCCCC[C@H](NC(=O)[C@H](CCCCN)NC(=O)[C@H](Cc2ccccc2)NC(=O)[C@H](CCCCN)NC(=O)OCC2c3ccccc3-c3ccccc32)C(N)=O)C(=O)OCc2c1cc1n(c2=O)Cc2cc3ccccc3nc2-1 [Compound E, Fmoc-KFKK(CPT)-NH2] (Fmoc-KFKK(Succinyl(20-O-(20S)-CPT))-NH2; N-terminus and C-terminus assumed)
solubility in PBS [1]: soluble | solubility in water [1]: soluble

CC[C@@]1(OC(=O)CCC(=O)NCCCC[C@H](NC(=O)[C@H](CCCCN)NC(=O)[C@H](Cc2ccccc2)NC(=O)[C@H](CCCCN)NC(C)=O)C(N)=O)C(=O)OCc2c1cc1n(c2=O)Cc2cc3ccccc3nc2-1 [Compound F, Ac-KFKK(CPT)-NH2] (Ac-KFKK(Succinyl(20-O-(20S)-CPT))-NH2)
solubility in PBS [1]: soluble | precipitation in PBS at 10 mM [1]: remained highly soluble | solubility in water [1]: soluble

CC[C@@]1(OC(=O)CCC(=O)NCCCC[C@H](NC(=O)[C@@H](N)CCCCN)C(N)=O)C(=O)OCc2c1cc1n(c2=O)Cc2cc3ccccc3nc2-1 [D, NH2—KK(CPT)-NH2]
cellular uptake (fluorescence, 420-470 nm after 335 nm excitation) [5]: slightly higher than that of C | lactone form present after 7 days ([2]; 37° C.): 71% | Deaths from Tumor Burden ([4]; 5 mg/kg): 2/5 | Deaths from Tumor Burden ([4]; 15 mg/kg): 2/5 | in vivo efficacy (tumor burden) ([4]; mesothelioma model, tumor cells into the peritoneum, weekly intravenous or intraperitoneal): lower in vivo efficacy | in vivo efficacy (tumor burden) [6]: lower in vivo efficacy | solubility in PBS [1]: limited solubility

CC[C@@]1(OC(=O)CCC(=O)NCCCC[C@H](NC(=O)[C@H](CCCCN)NC(=O)[C@H](Cc2ccccc2)NC(=O)[C@@H](N)CCCCN)C(N)=O)C(=O)OCc2c1cc1n(c2=O)Cc2cc3ccccc3nc2-1 [G, NH2—KFKK(CPT)-NH2] (H-KFKK(Succinyl(20-O-(20S)-CPT))-NH2)
solubility in PBS [1]: soluble | precipitation in PBS at 10 mM [1]: remained highly soluble | solubility in water [1]: soluble

CCc1c2c(nc3ccc(OC(=O)N4CCC(N5CCCCC5)CC4)cc13)-c1cc3c(c(=O)n1C2)COC(=O)[C@]3(O)CC [Irinotecan HCl, reference compound]
potency in killing human colorectal cancer cells (viability) [7]: the least potent | cellular uptake (fluorescence, 420-470 nm after 335 nm excitation) [5]: highest fluorescence | Deaths from Tumor Burden ([4]; 100 mg/kg): 0/5
